In publication PMC12730228, “Targeted NanoBiT Screening Identifies a Novel Interaction Between SNAPIN and Influenza A Virus M1 Protein” (Biology, 2025):

What was measured:
[1] = molecular target: SmN-SNAPIN (human) (UniProt O95295); test: split reporter (BiFC, NanoBiT)
[2] = molecular target: T1, SmN-SNAPIN (human, UniProt O95295 1-136); test: split reporter (BiFC, NanoBiT); details: partners not purified
T1 construct: also called SNAPIN-SmBiT; not shown: SmBiT, N-terminal, kept
T1 sequence (looked up): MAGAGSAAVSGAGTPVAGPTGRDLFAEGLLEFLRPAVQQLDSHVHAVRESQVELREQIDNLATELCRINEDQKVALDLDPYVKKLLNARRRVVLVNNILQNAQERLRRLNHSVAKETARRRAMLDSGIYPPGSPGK

[3] = molecular target: T2, Flag-M1 (influenza A virus A/WSN/33 (H1N1), UniProt P05777 1-252); test: pull-down; details: both partners purified
T2 construct: also called Flag-tagged M1; M1 protein; not shown: Flag, N-terminal, kept
T2 sequence (P05777 whole entry): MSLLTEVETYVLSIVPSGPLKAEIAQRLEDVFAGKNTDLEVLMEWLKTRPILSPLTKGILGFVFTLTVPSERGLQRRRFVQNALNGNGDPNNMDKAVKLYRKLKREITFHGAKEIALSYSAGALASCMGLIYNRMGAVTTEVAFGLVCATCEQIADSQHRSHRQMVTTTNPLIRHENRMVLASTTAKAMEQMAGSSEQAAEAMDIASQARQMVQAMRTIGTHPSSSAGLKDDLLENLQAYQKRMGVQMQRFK

## LgN-NS2 (natural protein)
[1]
  fold signal increase relative to the negative control: 2.37 fold

B1: LgN-M2 (natural protein)
chain: MSLLTEVETPIRNEWGCRCNDSSDPLVIAANIIGILHLILWILDRLFFKCIYRRFKYGLKRGPSTEGVPESMREEYRKEQQNAVDVDDGHFVNIELE
notes: also called matrix protein 2; not shown: LgBiT, N-terminal, kept
[2]
  fold signal increase relative to the negative control: 8.62 fold

B2: GST-SNAPIN (natural protein, human, UniProt O95295 1-136, looked up)
chain: T1 sequence (looked up)
notes: also called GST-tagged SNAPIN
[3]
  binding result: binds
